Test results reported in US20200062804A1 (ADRX, published 2020).
Each block holds one molecule with its values, some of them ahead of it. Non-standard residues stand in square brackets, D forms with d. No end group written: not given here.

Legend:
Protein in Human Serum = assay: protein binding in human serum; method not described
Nat1 (LTIITLE) = biological target: T1, Nat1 (LTIITLE) (also: TFA salt); assay: cell-based or functional assay
T1 peptide: LTIITLE

% Protein Binding in Human Serum (Protein in Human Serum): 94%
Molecule: rrrrrrrrrrpikwrwyrr (peptide)

% Protein Binding in Human Serum (Protein in Human Serum): 95%
Molecule: rrrrrrrrrrpihlriwrn (peptide)

% Protein Binding in Human Serum (Protein in Human Serum): 99%
Molecule: rrrrrrrrrrpiyqwyrwq (peptide)

% Protein Binding in Human Serum (Protein in Human Serum): 93%
Molecule: rrrrrrrrrrpirihyfrr (peptide)

% Protein Binding in Human Serum (Protein in Human Serum): 12%
Molecule: rrrrrrrrrrpihqrqyqr (peptide)

% Protein Binding in Human Serum (Protein in Human Serum): 86%
Molecule: rrrrrrrrrrpikfrfyhr (peptide)

% Protein Binding in Human Serum (Protein in Human Serum): 89%
Molecule: rrrrrrrrrgggyqwyrwq (peptide)

% Protein Binding in Human Serum (Protein in Human Serum): 98%
B1: … (peptide)
peptide: PRRRRRRRRRRPILRIRYWKP

IC50, Thiofiavin T aggregation assay (Nat1 (LTIITLE)): 194 nM | % Protein Binding in Human Serum (Protein in Human Serum): 98%
B2: yqwyrwq (peptide)
peptide: [dY][dQ][dW][dY][dR][dW][dQ]

IC50, Thiofiavin T aggregation assay (Nat1 (LTIITLE)): 203 nM
B3: LYIRTLH (peptide)
peptide: LYIRTLH

% Protein Binding in Human Serum (Protein in Human Serum): 81%
B4: … (peptide)
peptide: RRRRRRRRRRPIIRIRHYRP

IC50, Thiofiavin T aggregation assay (Nat1 (LTIITLE)): 194 nM
B5: lwrwyrr (peptide)
peptide: [dL][dW][dR][dW][dY][dR][dR]

IC50, Thiofiavin T aggregation assay (Nat1 (LTIITLE)): 199 nM
B6: rwrilqk (peptide)
peptide: [dR][dW][dR][dI][dL][dQ][dK]

% Protein Binding in Human Serum (Protein in Human Serum): 89%
B7: … (peptide)
peptide: PRRRRRRRRRRPIIRIRHYRP

IC50, Thiofiavin T aggregation assay (Nat1 (LTIITLE)): 205 nM
B8: IRIRRY (peptide)
peptide: IRIRRY

IC50, Thiofiavin T aggregation assay (Nat1 (LTIITLE)): 220 nM
B9: LAIKYHR (peptide)
peptide: LAIKYHR

IC50, Thiofiavin T aggregation assay (Nat1 (LTIITLE)): 213 nM
B10: TRIYRYK (peptide)
peptide: TRIYRYK

IC50, Thiofiavin T aggregation assay (Nat1 (LTIITLE)): 216 nM
B11: rwmywqr (peptide)
peptide: [dR][dW][dM][dY][dW][dQ][dR]

IC50, Thiofiavin T aggregation assay (Nat1 (LTIITLE)): 76 nM | % Protein Binding in Human Serum (Protein in Human Serum): 91%
B12: rfyyhrr (peptide)
peptide: [dR][dF][dY][dY][dH][dR][dR]

IC50, Thiofiavin T aggregation assay (Nat1 (LTIITLE)): 210 nM
B13: LFIKYHR (peptide)
peptide: LFIKYHR

% Protein Binding in Human Serum (Protein in Human Serum): 84%
B14: … (peptide)
peptide: RRRRRRRRRRPIIRIRHYR

% Protein Binding in Human Serum (Protein in Human Serum): 83%
B15: … (peptide)
peptide: RRRRRRRRRRPIIRIRHYP

% Protein Binding in Human Serum (Protein in Human Serum): 66%
B16: … (peptide)
peptide: RRRRRRRRRRPILTRITLE

IC50, Thiofiavin T aggregation assay (Nat1 (LTIITLE)): 203 nM
B17: WTIRYYK (peptide)
peptide: WTIRYYK

IC50, Thiofiavin T aggregation assay (Nat1 (LTIITLE)): 222 nM
B18: WTRITLK (peptide)
peptide: WTRITLK

IC50, Thiofiavin T aggregation assay (Nat1 (LTIITLE)): 43 nM
B19: rihyfrr (peptide)
peptide: [dR][dI][dH][dY][dF][dR][dR]

IC50, Thiofiavin T aggregation assay (Nat1 (LTIITLE)): 32 nM | % Protein Binding in Human Serum (Protein in Human Serum): 81%
B20: kfrfyhr (peptide)
peptide: [dK][dF][dR][dF][dY][dH][dR]

IC50, Thiofiavin T aggregation assay (Nat1 (LTIITLE)): 192 nM
B21: LYIRLTH (peptide)
peptide: LYIRLTH

% Protein Binding in Human Serum (Protein in Human Serum): 89%
B22: … (peptide)
peptide: PRRRRRRRRRRPITRIRFYRP

IC50, Thiofiavin T aggregation assay (Nat1 (LTIITLE)): 95 nM | % Protein Binding in Human Serum (Protein in Human Serum): 82%
B23: qqryywr (peptide)
peptide: [dQ][dQ][dR][dY][dY][dW][dR]

IC50, Thiofiavin T aggregation assay (Nat1 (LTIITLE)): 215 nM
B24: rlhwkhh (peptide)
peptide: [dR][dL][dH][dW][dK][dH][dH]

% Protein Binding in Human Serum (Protein in Human Serum): 100%
B25: … (peptide)
peptide: PRRRRRRRRRRPIWTIKLWHP

IC50, Thiofiavin T aggregation assay (Nat1 (LTIITLE)): 210 nM
B26: rqhyrwr (peptide)
peptide: [dR][dQ][dH][dY][dR][dW][dR]

IC50, Thiofiavin T aggregation assay (Nat1 (LTIITLE)): 198 nM
B27: LTIRLWH (peptide)
peptide: LTIRLWH

IC50, Thiofiavin T aggregation assay (Nat1 (LTIITLE)): 228 nM
B28: fwrwhra (peptide)
peptide: [dF][dW][dR][dW][dH][dR][dA]
